This is an account of results in paper PMC2710984.

As a reminder, the IC50 is the concentration that gives 50% inhibition.

In this experiment the target is GST–BIR3 fusion protein (XIAP BIR3 domain). Description: FMAT bead-based fluorescence competition assay.

Some results are limits rather than exact numbers.

With “Smac N-terminal tripeptide AVP (compound 5)”, the IC50 is greater than 10 µM.
